Measured values as given in PMC7159914.

How the values were obtained:
[1] = molecular target: rotavirus (RV) A VP3, full-length recombinant (rotavirus A); experiment: cryo-EM structure
[2] = molecular target: rotavirus (RV) A VP3, full-length recombinant (rotavirus A); experiment: crystal structure
[3] = molecular target: rotavirus (RV) A VP3, full-length recombinant (rotavirus A); experiment: SEC + AUC

Measured: stoichiometry N

rotavirus (RV) A VP3, full-length recombinant (enzyme)
4: all assays above
